Where “and” joins values, the source holds several entries; their conditions need not be identical. Equal entries are not always repeated. Ends that are not written are not given here.
What was measured:
[1] = biological target: GST-DLG2 PDZ domain 3 (human); test: Matrix/G assay ELISA, E6 peptide titrated on GST-PDZ
[2] = biological target: GST-DLG3 PDZ domains 1-2 (human), Q92796; test: as above
[3] = biological target: GST-MAGI1 PDZ domain 2 (human); test: as above
[4] = biological target: GST-PSD95 PDZ domain 2 (human); test: as above
[5] = biological target: GST-PSD95 PDZ domains 1-3 (human), P78352; test: as above
[6] = biological target: GST-SAST1 PDZ domain (human), Q9Y2H9; test: as above
[7] = biological target: GST-SAST2 PDZ domain 1 (human); test: as above
[8] = biological target: GST-SIP1 PDZ domain 1 (human); test: as above
[9] = biological target: GST-CASK PDZ domain 1 (human); test: G assay ELISA, 10 uM biotin peptide on anti-GST-captured GST-PDZ
[10] = biological target: GST-DLG1 PDZ domain 1 (human); test: as above
[11] = biological target: GST-FLJ11215 PDZ domain 1 (human); test: as above
[12] = biological target: GST-HTRA 3 PDZ domain 1 (human); test: as above
[13] = biological target: GST-KIAA0316 PDZ domain 1 (human); test: as above
[14] = biological target: GST-KIAA0380 PDZ domain 1, clone #25.6 (human); test: as above
[15] = biological target: GST-KIAA0561 PDZ domain 1 (human); test: as above
[16] = biological target: GST-KIAA0751 PDZ domain 1 (human); test: as above
[17] = biological target: GST-KIAA1634 PDZ domain 5 (human); test: as above
[18] = biological target: GST-KIAA1719 PDZ domain 3 (human); test: as above
[19] = biological target: GST-LIM-RIL PDZ domain 1 (human); test: as above
[20] = biological target: GST-MUPP1 PDZ domain 10 (human); test: as above
[21] = biological target: GST-NeDLG PDZ domain 2 (human); test: as above
[22] = biological target: GST-RGS12 PDZ domain 1 (human); test: as above
[23] = biological target: GST-SITAC-18 PDZ domain 1 (human); test: as above
[24] = biological target: GST-Serine Protease PDZ domain 1 (human); test: as above
[25] = biological target: GST-Shank 1 PDZ domain 1 (human); test: as above
[26] = biological target: GST-Syntrophin gamma 1 PDZ domain 1 (human); test: as above
[27] = biological target: GST-TIAM 2 PDZ domain 1 (human); test: as above
[28] = biological target: GST-X-11 beta PDZ domain 2 (human); test: as above
[29] = biological target: GST-ZO-1 PDZ domain 1 (human); test: as above

Chain of GST-SAST1 PDZ domain (human), Q9Y2H9 (Q9Y2H9 other isoform, or with tags, fused parts or gaps limits assumed): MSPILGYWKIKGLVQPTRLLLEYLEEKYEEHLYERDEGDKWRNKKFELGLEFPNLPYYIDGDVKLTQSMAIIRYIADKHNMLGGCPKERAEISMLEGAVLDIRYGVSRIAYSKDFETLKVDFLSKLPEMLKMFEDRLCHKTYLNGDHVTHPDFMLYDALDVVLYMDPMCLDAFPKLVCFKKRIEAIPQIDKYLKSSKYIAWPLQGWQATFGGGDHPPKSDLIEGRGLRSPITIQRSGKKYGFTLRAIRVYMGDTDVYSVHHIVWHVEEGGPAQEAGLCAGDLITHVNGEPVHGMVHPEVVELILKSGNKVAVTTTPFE
Chain of GST-DLG3 PDZ domains 1-2 (human), Q92796 (Q92796 other isoform, or with tags, fused parts or gaps limits assumed): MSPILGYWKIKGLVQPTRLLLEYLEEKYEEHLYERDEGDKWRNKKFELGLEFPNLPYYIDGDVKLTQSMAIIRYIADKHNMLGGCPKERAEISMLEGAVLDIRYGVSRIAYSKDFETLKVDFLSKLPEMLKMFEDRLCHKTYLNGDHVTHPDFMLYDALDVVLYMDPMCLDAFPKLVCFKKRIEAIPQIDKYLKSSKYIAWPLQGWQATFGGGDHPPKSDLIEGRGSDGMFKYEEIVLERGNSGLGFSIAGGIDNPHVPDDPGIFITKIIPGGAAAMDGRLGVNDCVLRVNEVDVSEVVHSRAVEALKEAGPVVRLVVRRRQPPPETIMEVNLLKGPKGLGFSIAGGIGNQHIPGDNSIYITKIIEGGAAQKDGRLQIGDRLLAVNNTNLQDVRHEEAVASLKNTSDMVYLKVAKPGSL

B1: HPV16 E6 C-terminal PDZ ligand peptide (20 mer, biotinylated), P03126 139-158 (peptide)
peptide: WTGRCMSCCRSSRTRRETQL
modifications: not fully specified; cysteine pairing not given here
[1]
  EC50: 1600 nM
[2]
  EC50: 3.8 µM
[3]
  EC50: 56 nM
[4]
  EC50: 6.8 µM
[5]
  EC50: 1000 nM
[6]
  EC50: 580 nM
[7]
  EC50: 1200 nM
[8]
  EC50: 7.5 µM
[9]
  Ave OD: 0.36 A450 nm
  OD S/N (ratio to GST only well): 1.15
[10]
  Ave OD: 0.391 A450 nm
  OD S/N (ratio to GST only well): 2.98
[11]
  Ave OD: 0.449 A450 nm
  OD S/N (ratio to GST only well): 2.77
[12]
  Ave OD: 0.413 A450 nm
  OD S/N (ratio to GST only well): 1.34
[13]
  Ave OD: 0.343 A450 nm
  OD S/N (ratio to GST only well): 2.34
[14]
  Ave OD: 0.376 A450 nm
  OD S/N (ratio to GST only well): 1.95
[15]
  Ave OD: 0.347 A450 nm
  OD S/N (ratio to GST only well): 2.44
[16]
  Ave OD: 0.451 A450 nm
  OD S/N (ratio to GST only well): 2.1
[17]
  Ave OD: 0.403 A450 nm
  OD S/N (ratio to GST only well): 2.07
[18]
  Ave OD: 0.346 A450 nm
  OD S/N (ratio to GST only well): 1.65
[19]
  Ave OD: 0.449 A450 nm
  OD S/N (ratio to GST only well): 1.6
[20]
  Ave OD: 0.393 A450 nm and 0.392 A450 nm
  OD S/N (ratio to GST only well): 2.03 and 1.96
[21]
  Ave OD: 0.425 A450 nm
  OD S/N (ratio to GST only well): 2.2
[22]
  Ave OD: 0.429 A450 nm
  OD S/N (ratio to GST only well): 3.96
[23]
  Ave OD: 0.398 A450 nm
  OD S/N (ratio to GST only well): 1.63
[24]
  Ave OD: 0.343 A450 nm
  OD S/N (ratio to GST only well): 1.55
[25]
  Ave OD: 0.385 A450 nm
  OD S/N (ratio to GST only well): 1.71
[26]
  Ave OD: 0.358 A450 nm
  OD S/N (ratio to GST only well): 2
[27]
  Ave OD: 0.356 A450 nm
  OD S/N (ratio to GST only well): 2.05
[28]
  Ave OD: 0.431 A450 nm and 0.426 A450 nm
  OD S/N (ratio to GST only well): 2.95 and 1.78
[29]
  Ave OD: 0.412 A450 nm
  OD S/N (ratio to GST only well): 1.83
